In paper PMC3578163 (Chemical research in toxicology, 2013):
Where two headings read alike, the source gives them in different places.

Columns and labels:
Experiment in all cases: fluorescence polarization
[1] = molecular target: T1, DNA polymerase iota catalytic core (hpol ι26-446) (Homo sapiens, UniProt Q9UNA4 26-446)
T1 sequence: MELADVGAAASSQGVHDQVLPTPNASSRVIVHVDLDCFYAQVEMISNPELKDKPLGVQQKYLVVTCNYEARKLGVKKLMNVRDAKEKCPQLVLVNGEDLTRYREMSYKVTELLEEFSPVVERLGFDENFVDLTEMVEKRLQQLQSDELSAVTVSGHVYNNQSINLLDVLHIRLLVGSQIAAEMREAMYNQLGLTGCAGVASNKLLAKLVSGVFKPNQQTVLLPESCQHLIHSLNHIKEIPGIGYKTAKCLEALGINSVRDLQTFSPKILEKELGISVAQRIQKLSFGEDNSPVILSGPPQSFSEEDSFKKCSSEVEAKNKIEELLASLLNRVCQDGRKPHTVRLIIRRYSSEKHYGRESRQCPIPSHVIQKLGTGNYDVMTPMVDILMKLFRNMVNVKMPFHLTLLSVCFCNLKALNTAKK

[2] = molecular target: T2, DNA polymerase kappa catalytic core (hpol κ19-526) (Homo sapiens, UniProt Q9UBT6 19-526)
T2 sequence: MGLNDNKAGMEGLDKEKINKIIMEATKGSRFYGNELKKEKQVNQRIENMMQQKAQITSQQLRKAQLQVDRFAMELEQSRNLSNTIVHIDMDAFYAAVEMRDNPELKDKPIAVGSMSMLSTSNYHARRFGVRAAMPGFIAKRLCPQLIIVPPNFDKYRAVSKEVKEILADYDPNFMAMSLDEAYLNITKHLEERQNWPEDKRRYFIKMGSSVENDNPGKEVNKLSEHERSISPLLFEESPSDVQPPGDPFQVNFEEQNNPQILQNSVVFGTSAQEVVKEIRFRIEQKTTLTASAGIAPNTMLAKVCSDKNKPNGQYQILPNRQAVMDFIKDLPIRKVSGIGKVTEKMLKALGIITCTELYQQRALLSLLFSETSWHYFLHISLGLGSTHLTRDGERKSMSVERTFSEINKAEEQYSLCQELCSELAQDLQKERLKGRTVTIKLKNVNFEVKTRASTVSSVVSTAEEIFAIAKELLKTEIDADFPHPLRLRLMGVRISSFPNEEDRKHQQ

[3] = molecular target: T1, DNA polymerase iota catalytic core …; remark: listed apart in the source
[4] = molecular target: T2, DNA polymerase kappa catalytic core …; remark: listed apart in the source
[5] = molecular target: T1, DNA polymerase iota catalytic core …; remark: listed apart in the source
[6] = molecular target: T1, DNA polymerase iota catalytic core …; remark: listed apart in the source
[7] = molecular target: T1, DNA polymerase iota catalytic core …; remark: listed apart in the source
[8] = molecular target: T2, DNA polymerase kappa catalytic core …; remark: listed apart in the source

B1: FAM-13/18mer primer-template DNA (dsDNA)
DNA 1: TTTGGGGGAAGGATTC
DNA 2: TCACGGAATCCTTCCCCC
Question: B1 was tested. Which Kd [1] did it give?
Answer: 5.5 ± 0.7 nM

Question: And the Kd [2]?
Answer: 13.7 ± 5.1 nM

Question: And the Kd [3]?
Answer: 6.3 ± 0.9 nM

Question: And the Kd [4]?
Answer: 19 ± 5.6 nM

Question: What about the Kd [5] of the same binder?
Answer: 8.8 ± 1.3 nM

Question: And the Kd [6]?
Answer: 9.1 ± 1.6 nM

Question: What about the Kd [7] of the same binder?
Answer: 5.3 ± 0.7 nM

Question: And the Kd [8]?
Answer: 11.1 ± 5.1 nM
